Experimental data as given in a protein production outcome set (Wang et al. 2014).

Experiment: label from the status in PepcDB records
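Also: failed if final PepcDB status was selected cloned or expressed and not failed if soluble or beyond.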

| Sequence | protein production |
| --- | --- |
| MNFLSQRYTGKSLHPDETKCYKNFTQTAQKLTHRLAESINHYVNHIDCVINTNLYNRLLAEKKESNHMIYKERETWLEAILNTLPDHVFILDESGRYIESFGGTHHSKTFNAERYIGLQLSDVLSPTKADELMGFIFDVMQDNETKVVKYNLSLHDHLLLPIEELEALENPEEMWFEAIIKPVNAPENANKLVIWSVRDITKTHLLEQRLKQLSETDALTGLLNRRAFISNLDNAIIQHTKRSQTLSCLMIDIDHFKDINDSVGHFSGDHVITRIAHVCQGVIRGSDFIGRLGGEEFAVILTDTNAIQAYEVAERIRQAIQATICHVDDVEITTTVSIGVAELNSQQSNAKELLIEADKAMYYSKHSGRNQVTLAYENLPDLKLYQAGHLKIQRVS | failed |
| MNYLVLLIPVLFSFHQIFVRLGSREAETISGIYVSLLASTIIFIPSVANPTLDGMFLLYMSLAGVLHFFVARICFYHAISRIGANLSAPLSATRVFFAALLGIFVGEYLTLRVVVMSLLIFAGIVLISRPKGKADAFGVTLGILTGLFSALSSYFVKFGNAVDYNPLFAIFLGFALSTILMTPLAVRKDLSHTKFYLAAGVTVGIAHLLRYVVLKDVPVTVVEPITSSYPLFTLLLSAIFLREGEIFTLRSITGTLLILGGIYVYYA | failed |
| MSNNGSSPLVLWYNQLGMKDVDRVGGKNASLGEMITNLSGMGVSVPNGFATTADAFNQFLDQSGVNQRIYELLDKTDIDDVTQLAKAGAQIRQWIIDTPFQPELENAIREAYAQLSADDENASFAVRSSATAEDMPDASFAGQQETFLNVQGFDAVLVAVKHVFASLFNDRAISYRVHQGYDHRGVALSAGVQRMVRSDLASSGVMFSIDTESGFDQVVFITSAWGLGEMVVQGAVNPDEFYVHKPTLAANRPAIVRRTMGSKKIRMVYAPTQEHGKQVKIEDVPQEQRDIFSLTNEEVQELAKQAVQIEKHYGHPMDIEWAKDGHTGKLFIVQARPETVRSRGQVMERYTLHSQGKIIAEGRAIGHRIGAGPVKVIHDISEMNRIEPGDVLVTDMTDPDWEPIMKKASAIVTNRGGRTCHAAIIARELGIPAVVGCGDATERMKDGENVTVSCAEGDTGYVYAELLEFSVKSSSVETMPDLPLKVMMNVGNPDRAFDFACLPNEGVGLARLEFIINRMIGVHPRALLEFDDQEPQLQNEIREMMKGFDSPREFYVGRLTEGIATLGAAFYPKRVIVRLSDFKSNEYANLVGGERYEPDEENPMLGFRGAGRYVSDSFRDCFALECEAVKRVRNDMGLTNVEIMIPFVRTVDQAKAVVEELARQGLKRGENGLKIIMMCEIPSNALLAEQFLEYFDGFSIGSNDMTQLALGLDRDSGVVSELFDERNDAVKALLSMAIRAAKKQGKYVGICGQGPSDHEDFAAWLMEEGIDSLSLNPDTVVQTWLSLAELKK | failed |
| MCTPAADTRRGSPALASTARRGLLPARRNGPSARRGEALRSSTGRFVCWCRRRTASVDPSGFMPASFSIAGRLVDLHARAIRPATVHVQDGVIARIEPAETVPERHLLPGFIDAHVHVESAMLPPSEFARAAVRHGTVGTVSDPHEIANVLGVEGVEYMIADGRPVPFHFAFGAPSCVPATPFETSGAELGPDAVSALLDRDDVPYLSEMMDYPGAIDGAPNVLAKIRAAQVRDKPVDGHAPGLRGDDVAQYAAAGIETDHECVSIEEAREKLEAGMKIAIREGSAAKNFDELIPLMDEAPDRLMFCSDDRHPDALAEGHIDTLVRRALNRGYDRFDVLRAACVHPVEHYGLDVGLLREGDPADFIVVDDLDALNVQETYVEGALVAEEGETHIEHVASDVVNRFDAEPVAPADFRVPAGGDRLRVITAVDNQLGTGEEVVTTPTDDGYAVADPDRDVLKLAVVNRYTEESTPAVAFVRGFGLDGGALASSVAHDSHNVVAVGARDDALARAVNAVVRAEGGISAAAEGTQVLPLPIAGLMSDEPYDVVARRYTRLTDYVRAELGSAMDAPFMTLSFLSLLVIPQLKLSDRGLFDGAAFEFVDRFVD | failed |
| SKDVLADYKELFRQFSISDIAVWVSTPSFAGVCITEKEFNSKMLPNLESMIFIGEALSKNLTKELMSRFPNTRIINGYGPTEATVGVSVNDMTQKAIDDEK | failed |
| MGETTVGHVAGEVVRALYGAGYMESTIGQYRKSIRALERYAGGPDAVYTRGLGAGFAASTFSERTGGFSRQRWFDYGRLARLCDSYLRSGSVDLGKWRRSRLAEPVVPGLAVVMERWEAYLAGSGLASATVGHYRRMAGLFLTWLESHGVVSLDGSDGSHVLGFLAGLRSRWSESSMRHAASDLRPLFRWLGRDDLADAIGLAGIRRTHAIAGTLPDDEHRRLLEACASRSVPSRDAAITLLSLTCGLRACDVIGLRIADVDWDSMSIGLVQRKTGNPLTVPMTGPLAARLASWLLDERPATDDDRVFVRYKAPHVALRGHSSVYEAISRVMRHAGLGRRGGSRLLRRNAATRMLEAATPLPTISAVLGHADPDSTRVYMATHRGGMLACVLPVPEGGSS | failed |
| MSKHVLRLALVGNPNSGKTALFNRLTGSRQKVANYPGVTVERKEGYFRASSGREFVILDLPGAYSFQPASFDEAITRDFCRGFYPGEAPPDVLVCVVDATNLRLHLRFVLELIELGRPVVVALNMVDAAQRRGIRIDRVILEQLLGVPVVETVAVRRHGARALLEQLDTGVIPLPAPVPALAAGDQYHAQVRHILDAAVKMPSRTSRVDDALDRWLLHPVFGLVVLTVVMFLIFQAVYAWAAPLVSLIEGSTTVLGHWVGNRLPDGPLRSLVVDGIITGIGGVLMFLPQILILFAFILALEESGYLPRAAFLLDRLMVLAGLSGRSFIPLLSSFACAVPGIMSTRSIQDPRDRLVTILVAPLMTCSARLPVYTLLIGAFVPRKSLWGPINQQGLVLFGLYMAGIFSALVVSWTVKKWRRGTSEHPLLLELPSYRLPHSRDLLLGLWERAVIFLKRVGGIILALTILLWFLLAFPEPPSGAIGPAIQYSFAGRIGHVIAVFFAPLGFSWQICIALIPGLAAREVAVSSLATVYALSASNEEMAVRALSPLIQDGWSLATALSLLVWYIYAPMCISTLVTIKRETNSWKHMAMTAGYLFALAYLAALATYQVALLLGAG | failed |
| MSTSPYEKLSEQEKKQMIKEIQEQAYEALLYAFGVEKKMISDDVKNLLNIEQESAEEKRKMAYEATLLAATFSHSLAKDRDGVLATLKNQLHITDDFHRECQNRVRNNILVVQLTGEASGSNYVGETGWTTLRRISNTIFRF | failed |
| MKAGIHPDYKKVVFMDTNTGFKFLSGSTKGSNETVEWEDGNTYPLLKVEISSDSHPFYTGRQKFATADGRVDRFNKKYGLK | failed |
| MSTSDPSAERPRDNFIYDIIDEDLEHGTYDGRVVTRFPPEPNGYLHIGHAKSIVLNFGIKHDYADRADTRCHLRFDDTNPDTESTEYVESIKEAVQWLGYDWEEHEYHASDYFEQFYQYAVTLIEQGDAYVDSLSEEEIREYRGTVDEPGTPSPYRDRSVEENLELFRKMRDGEFDDGEHVLRAKIDMSSPHMIMRDPLLFRIKHAHHYRRGDEWCIYPMYDYAHPLEDAIENITHSLCTLEFDNNRRVYDWVMEHCLDENELPSRPRQYEFNRLNLGYTVMSKTKLRHLIEEDLVGGWDDPRLPTISGLRRRGVPPSAIRSFCRTVGVTRSQSRVQIGHFEHALRDDLNAKAPRVMAVLDPLKVVATNVDADAVDWIDANHWPRDIDKDETRPVPFTREFYIERDDFREDPPEDFIRLAPGREVRLRHAYFFTCEEVVRDEDGVVTELRGTIDPETRDSTAPDGRSPEGTLHWVSAAHGLPFEARLYDRLFEVPDPDARDEHFTEFLNPDSLNVRQGVLEPAVRDLEADQRVQFERQGYFWPDPEASRPDALVYNQIVPLRDTWGEDEDGLTQEELARRRRAKEQRKQEQRRRSLDGKTDPAEHLDDAQRDRFDRFHDELGIDREDAATIAGNGALAGFFEQALAHYDAPVPVANWTVNELLGRLQDQTVADLPFGPDAFAELVRLVDTEFISTRGGDAVLDALLEDGGSPERIVDDRGLRQVDDTEALRPTVQSVLDDHPDEVSRYRDGKKGLIGFFMGQVMDATDGAASPELARELLQQELDPSA | failed |
| MNQTFIYYTVLFLIIFITISNLVENYRYSPKKIKNIIGIAFLLQIIRIVSLIALALVSDQRYISLFKYVGFLDIIYIPLMALIAFYILLRSDKINFQFFKFAPMVLTGFYIGVITIFKPFFKMSWEYGYVITTEKQILLKSIYILFLVAILSFLILFKKENHSDKKGIVFLGVTLAFIIIENSLELLGVRFLNGAIISELILCILGFYIVLTFKKNRISIRDCIKS | failed |
| MNAMLVGADTLGNIPDVLQNYGITIHRHLSGRNSSHQRKVDRLPAGTDLLILFTDFLGHNVMRHFRELAAEQQIRFIACRRSVCALKQSLTGAGMCEQPCAACPQRSGGDKPVKRKR | failed |
